The binders below were run against T1, SNTG1, Q9NSN8 (assay: holdup assay). Details: plain residues with an end cap or a label only (N-terminal biotin on a linker: ado-ado).
T1 sequence (Q9NSN8 52-150, limits assumed, looked up): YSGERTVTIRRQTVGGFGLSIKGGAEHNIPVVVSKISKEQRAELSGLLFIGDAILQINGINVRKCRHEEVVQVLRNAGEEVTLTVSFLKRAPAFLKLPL
Parameters: key: below the threshold = too weak to quantify, mostly under pKd 3.1 to 4

For EWTDERQSKV [GAB3, Q8WWW8], which pKd is on record?
Its pKd is 3.97.

These binders were tested against NHERF4_1, Q86UT5-2 (assay: holdup assay). Details: plain residues with an end cap or a label only (N-terminal biotin on a linker: ado-ado).
Chain of NHERF4_1, Q86UT5-2 (Q86UT5 other isoform, or with tags, fused parts or gaps): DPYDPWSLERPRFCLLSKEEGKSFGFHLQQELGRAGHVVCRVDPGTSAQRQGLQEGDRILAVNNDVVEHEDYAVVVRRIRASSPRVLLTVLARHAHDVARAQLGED
Parameters: key: below the threshold = too weak to quantify, mostly under pKd 3.1 to 4

With EWTDERQSKV [GAB3, Q8WWW8] as the binder, how does the pKd read?
Its pKd is “below the threshold”.

Each binder was assayed against MAGI2_4, Q86UL8 (assay: holdup assay). Details: plain residues with an end cap or a label only (N-terminal biotin on a linker: ado-ado).
Chain of MAGI2_4, Q86UL8 (Q86UL8 772-865): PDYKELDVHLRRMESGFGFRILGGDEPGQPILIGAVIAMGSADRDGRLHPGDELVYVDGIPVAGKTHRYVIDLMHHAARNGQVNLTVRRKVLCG
Parameters: key: below the threshold = too weak to quantify, mostly under pKd 3.1 to 4

For EWTDERQSKV [GAB3, Q8WWW8], which pKd is on record?
The pKd was “below the threshold”.

These binders were tested against T2, PTPN13_1, Q12923 (assay: holdup assay). Details: plain residues with an end cap or a label only (N-terminal biotin on a linker: ado-ado).
T2 sequence (Q12923 1088-1188, limits assumed, looked up): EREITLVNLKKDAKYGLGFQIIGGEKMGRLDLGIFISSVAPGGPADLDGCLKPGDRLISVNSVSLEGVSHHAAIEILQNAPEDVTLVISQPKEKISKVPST
Parameters: key: below the threshold = too weak to quantify, mostly under pKd 3.1 to 4

For EWTDERQSKV [GAB3, Q8WWW8], which pKd is on record?
Its pKd is “below the threshold”.

What follows are binders tested against AHNAK1, Q09666 (assay: holdup assay). Details: plain residues with an end cap or a label only (N-terminal biotin on a linker: ado-ado).
Chain of AHNAK1, Q09666 (Q09666 4-100): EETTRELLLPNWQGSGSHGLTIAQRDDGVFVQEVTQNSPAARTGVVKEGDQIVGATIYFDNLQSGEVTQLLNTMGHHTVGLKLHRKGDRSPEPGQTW
Parameters: key: below the threshold = too weak to quantify, mostly under pKd 3.1 to 4

EWTDERQSKV [GAB3, Q8WWW8] was tested. Which pKd did it give?
The pKd was “below the threshold”.

What follows are binders tested against T3, MPDZ_5, O75970 (assay: holdup assay). Details: plain residues with an end cap or a label only (N-terminal biotin on a linker: ado-ado).
T3 sequence (O75970 695-796, limits assumed, looked up): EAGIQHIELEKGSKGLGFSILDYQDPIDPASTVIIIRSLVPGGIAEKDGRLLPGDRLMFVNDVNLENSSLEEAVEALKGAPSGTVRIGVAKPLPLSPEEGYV
Parameters: key: below the threshold = too weak to quantify, mostly under pKd 3.1 to 4

EWTDERQSKV [GAB3, Q8WWW8] was tested. Which pKd did it give?
Its pKd is “below the threshold”.

The binders below were run against PTPN3, P26045 (assay: holdup assay). Details: plain residues with an end cap or a label only (N-terminal biotin on a linker: ado-ado).
Chain of PTPN3, P26045 (P26045 505-587): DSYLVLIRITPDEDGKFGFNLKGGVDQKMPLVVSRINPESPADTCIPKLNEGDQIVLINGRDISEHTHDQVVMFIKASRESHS
Parameters: key: below the threshold = too weak to quantify, mostly under pKd 3.1 to 4

Which pKd does the source give for EWTDERQSKV [GAB3, Q8WWW8] here?
The pKd was 4.12.

What follows are binders tested against Inadl_3, Q8NI35 (assay: holdup assay). Details: plain residues with an end cap or a label only (N-terminal biotin on a linker: ado-ado).
Chain of Inadl_3, Q8NI35 (Q8NI35 359-469): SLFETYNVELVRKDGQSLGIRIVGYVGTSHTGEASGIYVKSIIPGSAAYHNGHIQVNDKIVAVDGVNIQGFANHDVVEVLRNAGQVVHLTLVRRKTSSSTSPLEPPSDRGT
Parameters: key: below the threshold = too weak to quantify, mostly under pKd 3.1 to 4

EWTDERQSKV [GAB3, Q8WWW8] was tested. Which pKd did it give?
Its pKd is “below the threshold”.

The binders below were run against LIMK2, P53671 (assay: holdup assay). Details: plain residues with an end cap or a label only (N-terminal biotin on a linker: ado-ado).
Chain of LIMK2, P53671 (P53671 143-248): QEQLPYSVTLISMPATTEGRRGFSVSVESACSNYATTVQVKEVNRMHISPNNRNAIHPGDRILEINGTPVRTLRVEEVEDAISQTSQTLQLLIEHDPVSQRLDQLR
Parameters: key: below the threshold = too weak to quantify, mostly under pKd 3.1 to 4

How did the pKd turn out when EWTDERQSKV [GAB3, Q8WWW8] was run?
Its pKd is “below the threshold”.

These binders were tested against T4, DFNB31_1, Q9P202 (assay: holdup assay). Details: plain residues with an end cap or a label only (N-terminal biotin on a linker: ado-ado).
T4 sequence (Q9P202 135-233, limits assumed, looked up): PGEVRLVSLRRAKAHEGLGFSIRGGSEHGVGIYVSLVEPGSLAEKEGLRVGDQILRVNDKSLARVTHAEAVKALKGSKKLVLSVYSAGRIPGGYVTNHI
Parameters: key: below the threshold = too weak to quantify, mostly under pKd 3.1 to 4

EWTDERQSKV [GAB3, Q8WWW8] was tested. Which pKd did it give?
The pKd was 3.94.

Each binder was assayed against T5, NHERF3_3, Q5T2W1 (assay: holdup assay). Details: plain residues with an end cap or a label only (N-terminal biotin on a linker: ado-ado).
T5 sequence (Q5T2W1 238-333, limits assumed, looked up): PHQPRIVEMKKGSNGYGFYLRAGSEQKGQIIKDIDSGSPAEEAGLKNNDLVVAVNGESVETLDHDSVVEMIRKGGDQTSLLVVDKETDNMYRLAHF
Parameters: key: below the threshold = too weak to quantify, mostly under pKd 3.1 to 4

With EWTDERQSKV [GAB3, Q8WWW8] as the binder, how does the pKd read?
Its pKd is “below the threshold”.

These binders were tested against T6, RADIL, Q96JH8 (assay: holdup assay). Details: plain residues with an end cap or a label only (N-terminal biotin on a linker: ado-ado).
T6 sequence (Q96JH8 971-1071, limits assumed, looked up): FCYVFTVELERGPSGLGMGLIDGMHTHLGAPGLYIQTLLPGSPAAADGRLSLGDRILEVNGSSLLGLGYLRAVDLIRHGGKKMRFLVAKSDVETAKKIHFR
Parameters: key: below the threshold = too weak to quantify, mostly under pKd 3.1 to 4

Which pKd does the source give for EWTDERQSKV [GAB3, Q8WWW8] here?
The pKd was 3.61.

What follows are binders tested against Inadl_10, Q8NI35 (assay: holdup assay). Details: plain residues with an end cap or a label only (N-terminal biotin on a linker: ado-ado).
Chain of Inadl_10, Q8NI35 (Q8NI35 1673-1763): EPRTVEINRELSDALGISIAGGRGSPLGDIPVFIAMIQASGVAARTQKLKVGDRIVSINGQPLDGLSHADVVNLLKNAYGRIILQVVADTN
Parameters: key: below the threshold = too weak to quantify, mostly under pKd 3.1 to 4

How did the pKd turn out when EWTDERQSKV [GAB3, Q8WWW8] was run?
Its pKd is “below the threshold”.

Each binder was assayed against TJP1_3, Q07157 (assay: holdup assay). Details: plain residues with an end cap or a label only (N-terminal biotin on a linker: ado-ado).
Chain of TJP1_3, Q07157 (Q07157 416-512): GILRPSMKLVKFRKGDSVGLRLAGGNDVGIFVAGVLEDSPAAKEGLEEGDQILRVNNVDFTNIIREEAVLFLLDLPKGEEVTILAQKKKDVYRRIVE
Parameters: key: below the threshold = too weak to quantify, mostly under pKd 3.1 to 4

With EWTDERQSKV [GAB3, Q8WWW8] as the binder, how does the pKd read?
Its pKd is “below the threshold”.

The binders below were run against MAGI1_2, Q96QZ7 (assay: holdup assay). Details: plain residues with an end cap or a label only (N-terminal biotin on a linker: ado-ado).
Chain of MAGI1_2, Q96QZ7 (Q96QZ7 456-580): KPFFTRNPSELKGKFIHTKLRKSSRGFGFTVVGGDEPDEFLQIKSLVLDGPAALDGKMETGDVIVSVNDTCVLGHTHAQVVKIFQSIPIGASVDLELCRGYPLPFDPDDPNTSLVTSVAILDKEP
Parameters: key: below the threshold = too weak to quantify, mostly under pKd 3.1 to 4

For EWTDERQSKV [GAB3, Q8WWW8], which pKd is on record?
The pKd was “below the threshold”.

These binders were tested against T7, LIN7A, O14910 (assay: holdup assay). Details: plain residues with an end cap or a label only (N-terminal biotin on a linker: ado-ado).
T7 sequence (O14910 103-200, limits assumed, looked up): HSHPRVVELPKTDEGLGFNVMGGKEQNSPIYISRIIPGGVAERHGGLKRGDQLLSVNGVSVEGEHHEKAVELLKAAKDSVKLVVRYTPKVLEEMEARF
Parameters: key: below the threshold = too weak to quantify, mostly under pKd 3.1 to 4

EWTDERQSKV [GAB3, Q8WWW8] was tested. Which pKd did it give?
Its pKd is “below the threshold”.

The binders below were run against GORASP2, Q9H8Y8 (assay: holdup assay). Details: plain residues with an end cap or a label only (N-terminal biotin on a linker: ado-ado).
Parameters: key: below the threshold = too weak to quantify, mostly under pKd 3.1 to 4

For EWTDERQSKV [GAB3, Q8WWW8], which pKd is on record?
The pKd was “below the threshold”.

What follows are binders tested against T8, RHPN1, Q8TCX5 (assay: holdup assay). Details: plain residues with an end cap or a label only (N-terminal biotin on a linker: ado-ado).
T8 sequence (Q8TCX5 508-602, limits assumed, looked up): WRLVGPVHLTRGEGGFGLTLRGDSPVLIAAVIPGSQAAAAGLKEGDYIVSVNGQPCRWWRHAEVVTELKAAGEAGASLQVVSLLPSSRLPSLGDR
Parameters: key: below the threshold = too weak to quantify, mostly under pKd 3.1 to 4

How did the pKd turn out when EWTDERQSKV [GAB3, Q8WWW8] was run?
The pKd was 4.2.

Each binder was assayed against LNX1_2, Q8TBB1 (assay: holdup assay). Details: plain residues with an end cap or a label only (N-terminal biotin on a linker: ado-ado).
Chain of LNX1_2, Q8TBB1 (Q8TBB1 371-470): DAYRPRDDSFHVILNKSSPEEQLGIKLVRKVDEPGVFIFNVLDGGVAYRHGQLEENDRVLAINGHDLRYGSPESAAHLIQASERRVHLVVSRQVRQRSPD
Parameters: key: below the threshold = too weak to quantify, mostly under pKd 3.1 to 4

Which pKd does the source give for EWTDERQSKV [GAB3, Q8WWW8] here?
The pKd was “below the threshold”.

These binders were tested against FRMPD2_2, Q68DX3 (assay: holdup assay). Details: plain residues with an end cap or a label only (N-terminal biotin on a linker: ado-ado).
Chain of FRMPD2_2, Q68DX3 (Q68DX3 944-1038): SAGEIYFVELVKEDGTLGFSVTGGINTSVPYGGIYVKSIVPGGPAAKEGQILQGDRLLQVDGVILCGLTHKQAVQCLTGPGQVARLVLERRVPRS
Parameters: key: below the threshold = too weak to quantify, mostly under pKd 3.1 to 4

EWTDERQSKV [GAB3, Q8WWW8] was tested. Which pKd did it give?
Its pKd is 3.52.

What follows are binders tested against FRMPD2_3, Q68DX3 (assay: holdup assay). Details: plain residues with an end cap or a label only (N-terminal biotin on a linker: ado-ado).
Chain of FRMPD2_3, Q68DX3 (Q68DX3 1073-1166): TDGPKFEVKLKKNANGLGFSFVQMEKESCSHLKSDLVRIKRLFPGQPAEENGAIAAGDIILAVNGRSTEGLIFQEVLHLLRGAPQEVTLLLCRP
Parameters: key: below the threshold = too weak to quantify, mostly under pKd 3.1 to 4

EWTDERQSKV [GAB3, Q8WWW8] was tested. Which pKd did it give?
The pKd was 3.55.

What follows are binders tested against T9, DLG3_1, Q92796 (assay: holdup assay). Details: plain residues with an end cap or a label only (N-terminal biotin on a linker: ado-ado).
T9 sequence (Q92796 125-227, limits assumed, looked up): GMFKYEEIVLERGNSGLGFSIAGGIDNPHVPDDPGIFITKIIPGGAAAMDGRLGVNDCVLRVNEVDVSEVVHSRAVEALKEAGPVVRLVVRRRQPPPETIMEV
Parameters: key: below the threshold = too weak to quantify, mostly under pKd 3.1 to 4

How did the pKd turn out when EWTDERQSKV [GAB3, Q8WWW8] was run?
Its pKd is 3.59.

The binders below were run against Inadl_9, Q8NI35 (assay: holdup assay). Details: plain residues with an end cap or a label only (N-terminal biotin on a linker: ado-ado).
Chain of Inadl_9, Q8NI35 (Q8NI35 1530-1615): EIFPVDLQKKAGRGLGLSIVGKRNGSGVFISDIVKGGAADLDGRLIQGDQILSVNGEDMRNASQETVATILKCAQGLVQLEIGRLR
Parameters: key: below the threshold = too weak to quantify, mostly under pKd 3.1 to 4

How did the pKd turn out when EWTDERQSKV [GAB3, Q8WWW8] was run?
The pKd was 3.56.

Each binder was assayed against T10, DLG3_2, Q92796 (assay: holdup assay). Details: plain residues with an end cap or a label only (N-terminal biotin on a linker: ado-ado).
T10 sequence (Q92796 221-321, limits assumed, looked up): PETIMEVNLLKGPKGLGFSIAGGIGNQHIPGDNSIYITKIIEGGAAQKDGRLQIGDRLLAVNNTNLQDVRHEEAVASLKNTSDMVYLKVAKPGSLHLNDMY
Parameters: key: below the threshold = too weak to quantify, mostly under pKd 3.1 to 4

For EWTDERQSKV [GAB3, Q8WWW8], which pKd is on record?
Its pKd is “below the threshold”.

These binders were tested against T11, SNTG2, Q9NY99 (assay: holdup assay). Details: plain residues with an end cap or a label only (N-terminal biotin on a linker: ado-ado).
T11 sequence (Q9NY99 68-166, limits assumed, looked up): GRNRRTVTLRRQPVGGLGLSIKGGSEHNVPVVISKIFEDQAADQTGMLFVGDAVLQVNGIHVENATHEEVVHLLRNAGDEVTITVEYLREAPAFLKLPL
Parameters: key: below the threshold = too weak to quantify, mostly under pKd 3.1 to 4

Which pKd does the source give for EWTDERQSKV [GAB3, Q8WWW8] here?
The pKd was 3.88.

Each binder was assayed against SCRIB_2, Q14160 (assay: holdup assay). Details: plain residues with an end cap or a label only (N-terminal biotin on a linker: ado-ado).
Chain of SCRIB_2, Q14160 (Q14160 857-960): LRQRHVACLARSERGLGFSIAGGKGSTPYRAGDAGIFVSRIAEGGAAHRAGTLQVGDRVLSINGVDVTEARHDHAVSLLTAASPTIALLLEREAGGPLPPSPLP
Parameters: key: below the threshold = too weak to quantify, mostly under pKd 3.1 to 4

EWTDERQSKV [GAB3, Q8WWW8] was tested. Which pKd did it give?
Its pKd is “below the threshold”.

Each binder was assayed against DLG1_3, Q12959 (assay: holdup assay). Details: plain residues with an end cap or a label only (N-terminal biotin on a linker: ado-ado).
Chain of DLG1_3, Q12959 (Q12959 457-571): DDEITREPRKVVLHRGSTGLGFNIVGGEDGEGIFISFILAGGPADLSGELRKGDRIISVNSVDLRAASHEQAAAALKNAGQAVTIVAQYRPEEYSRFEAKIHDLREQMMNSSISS
Parameters: key: below the threshold = too weak to quantify, mostly under pKd 3.1 to 4

With EWTDERQSKV [GAB3, Q8WWW8] as the binder, how does the pKd read?
The pKd was 3.76.

— article PMC9482650, “Quantitative fragmentomics allow affinity mapping of interactomes” (Nature Communications, 2022)
